From PMC12416549 (2024)
Where a chain is given by its changes, count along the chain named. In names and notes the source's numbering stands.

T1: TNFR1 (Homo sapiens, UniProt P19438)
T1 chain: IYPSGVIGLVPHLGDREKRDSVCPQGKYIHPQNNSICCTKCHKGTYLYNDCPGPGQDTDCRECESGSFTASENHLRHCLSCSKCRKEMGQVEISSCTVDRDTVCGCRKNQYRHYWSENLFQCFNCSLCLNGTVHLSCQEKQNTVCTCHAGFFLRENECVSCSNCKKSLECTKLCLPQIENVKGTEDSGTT

B1: L27P (designed binder)
chain: MTLQELLREEALRRAEAEAFRYALELPAEKFPEQKEYLLDLAEEIESQIRSLSGVDVEDVRKFLDKEWAWVKELLAEHPAELAEVEAARAARLAELRAEVEAKVAA
B2: K62W (designed binder)
chain: B1 chain with P27L, K62W
B3: E46G (designed binder)
chain: B1 chain with P27L, E46G
B4: L27I (designed binder)
chain: B1 chain with P27I
B5: E84D (designed binder)
chain: B1 chain with P27L, E84D
B6: L82C (designed binder)
chain: B1 chain with P27L, L82C
B7: F20N (designed binder)
chain: B1 chain with F20N, P27L
B8: M1Q (designed binder)
chain: B1 chain with M1Q, P27L
B9: E18W (designed binder)
chain: B1 chain with E18W, P27L
B10: A15S (designed binder)
chain: B1 chain with A15S, P27L
B11: E58S (designed binder)
chain: B1 chain with P27L, E58S
B12: P32I (designed binder)
chain: B1 chain with P27L, P32I
B13: A91S (designed binder)
chain: B1 chain with P27L, A91S
B14: L3E (designed binder)
chain: B1 chain with L3E, P27L
B15: K72H (designed binder)
chain: B1 chain with P27L, K72H
B16: K66P (designed binder)
chain: B1 chain with P27L, K66P
B17: P32H (designed binder)
chain: B1 chain with P27L, P32H
B18: A102D (designed binder)
chain: B1 chain with P27L, A102D
B19: V71P (designed binder)
chain: B1 chain with P27L, V71P
B20: T2V (designed binder)
chain: B1 chain with T2V, P27L
B21: V85I (designed binder)
chain: B1 chain with P27L, V85I
B22: R8N (designed binder)
chain: B1 chain with R8N, P27L
B23: L96Y (designed binder)
chain: B1 chain with P27L, L96Y
B24: D65E (designed binder)
chain: B1 chain with P27L, D65E
B25: A94S (designed binder)
chain: B1 chain with P27L, A94S
B26: E95I (designed binder)
chain: B1 chain with P27L, E95I
B27: V100C (designed binder)
chain: B1 chain with P27L, V100C
B28: R97P (designed binder)
chain: B1 chain with P27L, R97P
B29: L82H (designed binder)
chain: B1 chain with P27L, L82H
B30: L82T (designed binder)
chain: B1 chain with P27L, L82T
B31: P32G (designed binder)
chain: B1 chain with P27L, P32G
B32: A87W (designed binder)
chain: B1 chain with P27L, A87W
B33: S51D (designed binder)
chain: B1 chain with P27L, S51D
B34: K35H (designed binder)
chain: B1 chain with P27L, K35H
B35: A90M (designed binder)
chain: B1 chain with P27L, A90M
B36: E5I (designed binder)
chain: B1 chain with E5I, P27L
B37: Q4T (designed binder)
chain: B1 chain with Q4T, P27L
B38: L74F (designed binder)
chain: B1 chain with P27L, L74F
B39: V100H (designed binder)
chain: B1 chain with P27L, V100H
B40: E25P (designed binder)
chain: B1 chain with E25P, P27L
B41: V100W (designed binder)
chain: B1 chain with P27L, V100W
B42: E18V (designed binder)
chain: B1 chain with E18V, P27L
B43: E18R (designed binder)
chain: B1 chain with E18R, P27L
B44: A80M (designed binder)
chain: B1 chain with P27L, A80M
B45: L24E (designed binder)
chain: B1 chain with L24E, P27L
B46: E101L (designed binder)
chain: B1 chain with P27L, E101L
B47: E81R (designed binder)
chain: B1 chain with P27L, E81R
B48: E9N (designed binder)
chain: B1 chain with E9N, P27L
B49: K103I (designed binder)
chain: B1 chain with P27L, K103I
B50: Y22R (designed binder)
chain: B1 chain with Y22R, P27L
B51: S47T (designed binder)
chain: B1 chain with P27L, S47T
B52: L26Q (designed binder)
chain: B1 chain with L26Q, P27L
B53: R21M (designed binder)
chain: B1 chain with R21M, P27L
B54: D40C (designed binder)
chain: B1 chain with P27L, D40C
B55: K66V (designed binder)
chain: B1 chain with P27L, K66V
B56: K30H (designed binder)
chain: B1 chain with P27L, K30H
B57: K72P (designed binder)
chain: B1 chain with P27L, K72P
B58: E101Q (designed binder)
chain: B1 chain with P27L, E101Q
B59: L93E (designed binder)
chain: B1 chain with P27L, L93E

Molecular target: T1, TNFR1
Assay: yeast display SC50

| apparent Kd (screen) | Binder |
| --- | --- |
| 7.78 nM | B1 |
| 0.593 nM | B2 |
| 0.49 nM | B3 |
| 1.27 nM | B4 |
| 0.49 nM | B5 |
| 0.593 nM | B6 |
| 0.446 nM | B7 |
| 0.593 nM | B8 |
| 0.446 nM | B9 |
| 0.539 nM | B10 |
| 0.593 nM | B11 |
| 0.49 nM | B12 |
| 0.79 nM | B13 |
| 18.3 nM | B14 |
| 0.49 nM | B15 |
| 3.99 nM | B16 |
| 0.79 nM | B17 |
| 0.539 nM | B18 |
| 12.5 nM | B19 |
| 0.593 nM | B20 |

| apparent Kd (screen) | Binder |
| --- | --- |
| 0.593 nM | B21 |
| 0.539 nM | B22 |
| 0.49 nM | B23 |
| 0.446 nM | B24 |
| 0.593 nM | B25 |
| 0.446 nM | B26 |
| 0.446 nM | B27 |
| 0.869 nM | B28 |
| 0.593 nM | B29 |
| 0.653 nM | B30 |
| 0.593 nM | B31 |
| 0.653 nM | B32 |
| 2.05 nM | B33 |
| 0.446 nM | B34 |
| 0.539 nM | B35 |
| 0.49 nM | B36 |
| 0.593 nM | B37 |
| 0.79 nM | B38 |
| 0.869 nM | B39 |
| 2.25 nM | B40 |

| apparent Kd (screen) | Binder |
| --- | --- |
| 0.539 nM | B41 |
| 0.79 nM | B42 |
| 0.718 nM | B43 |
| 0.49 nM | B44 |
| 0.869 nM | B45 |
| 0.593 nM | B46 |
| 0.539 nM | B47 |
| 0.593 nM | B48 |
| 1.05 nM | B49 |
| 0.593 nM | B50 |
| 0.653 nM | B51 |
| 0.593 nM | B52 |
| 0.956 nM | B53 |
| 0.79 nM | B54 |
| 0.653 nM | B55 |
| 0.49 nM | B56 |
| 11.4 nM | B57 |
| 0.718 nM | B58 |
| 0.869 nM | B59 |
